# Test results: the Human Domainome abundance scans (Beltran et al. 2025)
# ± gives the uncertainty stated by the source.
# B1: Retinoic acid receptor beta, residues 85 to 161; numbered along this chain, P10826 (parent)
# chain: YKPCFVCQDKSSGYHYGVSACEGCKGFFRRSIQKNMIYTCHRDKNCVINKVTRNRCQYCRLQKCFEVGMSKESVRND
# Variants of: B1
# Test: abundance fitness (aPCA) (normalised: wild type 0, dead -1); higher = more abundant; growth selection in yeast, the domain comes from the species named
# Conditions: Homo sapiens
row,Variant,abundance fitness
1,E66T,0.008 ± 0.07
2,E66V,-0.032 ± 0.042
3,E66L,-0.039 ± 0.046
4,E66M,0.082 ± 0.05
5,E66G,-0.014 ± 0.037
6,N49R,-0.43 ± 0.05
7,N49A,-0.284 ± 0.044
8,N49S,-0.116 ± 0.036
9,K50C,-0.218 ± 0.11
10,K50Y,0.126 ± 0.08
11,K63P,-0.847 ± 0.21
12,K63L,-0.272 ± 0.059
13,F5Y,-0.043 ± 0.074
14,N76Y,0.046 ± 0.1
15,N76S,0.148 ± 0.053
16,V18R,-0.76 ± 0.1
17,R53F,0.057 ± 0.079
18,R53M,0.195 ± 0.045
19,R53Q,0.19 ± 0.068
20,Y1G,-0.097 ± 0.055
21,N35A,0.037 ± 0.045
22,N35S,0.035 ± 0.051
23,N35V,-0.184 ± 0.057
24,N35K,0.186 ± 0.061

row,Variant,abundance fitness
1,C64D,-0.996 ± 0.25
2,C64V,-0.628 ± 0.084
3,S12C,0.168 ± 0.058
4,S12R,-0.32 ± 0.05
5,Q57G,0.2 ± 0.028
6,Q57S,0.144 ± 0.041
7,Q57K,-0.245 ± 0.065
8,F27E,-0.822 ± 0.14
9,V47C,0.003 ± 0.044
10,A20M,-0.228 ± 0.068
11,A20Y,-0.594 ± 0.38
12,A20G,-0.614 ± 0.06
13,C7T,-0.438 ± 0.13
14,C7F,-0.999 ± 0.28
15,C7N,-0.615 ± 0.24
16,K10P,-0.03 ± 0.095
17,K10N,0.146 ± 0.085
18,K10M,0.078 ± 0.06
19,H41S,-0.089 ± 0.042
20,H41T,0.129 ± 0.052
21,Y58I,-0.898 ± 0.32
22,D43M,-0.076 ± 0.058
23,D43I,-0.038 ± 0.087
24,G26N,0.246 ± 0.12

row,Variant,abundance fitness
1,Q33G,-0.044 ± 0.032
2,Q33D,0.016 ± 0.073
3,Q8P,-0.813 ± 0.21
4,Q8T,0.015 ± 0.065
5,Q8K,0 ± 0.053
6,K25A,0.205 ± 0.04
7,K25S,0.099 ± 0.042
8,K25L,0.028 ± 0.044
9,R60L,0.21 ± 0.035
10,R60T,-0.001 ± 0.052
11,T52L,0.038 ± 0.037
12,T52Q,0.027 ± 0.053
13,T52G,-0.029 ± 0.03
14,Y16I,-0.178 ± 0.074
15,R30W,-0.647 ± 0.11
16,R30V,-1.02 ± 0.14
17,R30E,0.142 ± 0.049
18,R30H,-0.172 ± 0.2
19,G68L,-0.807 ± 0.11
20,G68D,-0.663 ± 0.12
21,G68F,-0.204 ± 0.12
22,G68K,-0.392 ± 0.085
23,G68E,-0.763 ± 0.14
24,M36C,0.15 ± 0.065

row,Variant,abundance fitness
1,F65E,-0.024 ± 0.042
2,C21S,-0.933 ± 0.15
3,K44D,-0.059 ± 0.075
4,K44Q,0.166 ± 0.06
5,K71L,-0.027 ± 0.042
6,K71E,0.103 ± 0.048
7,K71I,-0.078 ± 0.099
8,K71D,-0.085 ± 0.066
9,S19P,-0.045 ± 0.077
10,S19L,-0.046 ± 0.05
11,S19C,-0.088 ± 0.075
12,S19W,0.024 ± 0.044
13,S19R,-0.121 ± 0.041
14,R55L,0.183 ± 0.038
15,R55C,0.102 ± 0.093
16,R55Y,0.077 ± 0.07
17,K34G,0.078 ± 0.03
18,K34D,0.33 ± 0.062
19,K34A,0.003 ± 0.042
20,K34E,0.169 ± 0.044
21,C46D,-0.352 ± 0.13
22,C46N,-0.704 ± 0.15
23,C46I,-0.711 ± 0.17
24,R29K,-0.092 ± 0.072

row,Variant,abundance fitness
1,R29Y,-0.339 ± 0.17
2,R29D,-0.079 ± 0.1
3,Q62L,-0.042 ± 0.039
4,Q62V,0.026 ± 0.034
5,H15D,0.03 ± 0.061
6,H15V,-0.091 ± 0.061
7,H15Y,0.05 ± 0.073
8,H15F,-0.111 ± 0.063
9,I48W,-0.647 ± 0.13
10,D77R,-0.194 ± 0.053
11,D77S,-0.093 ± 0.065
12,V67C,-0.172 ± 0.081
13,V67D,-0.8 ± 0.22
14,G23S,0.114 ± 0.043
15,R75K,-0.018 ± 0.065
16,R75S,-0.045 ± 0.055
17,S70R,-0.053 ± 0.039
18,S70W,-0.417 ± 0.065
19,G13T,-0.053 ± 0.068
20,G13W,-0.673 ± 0.39
21,C24D,-0.47 ± 0.18
22,C24P,-1.06 ± 0.42
23,C4L,-0.778 ± 0.11
24,C4Q,-0.889 ± 0.27

row,Variant,abundance fitness
1,E22P,-0.324 ± 0.078
2,S31M,-0.486 ± 0.11
3,S31A,-0.121 ± 0.041
4,D9R,-0.631 ± 0.075
5,Y14A,0.11 ± 0.05
6,C59P,-0.777 ± 0.18
7,C59N,-0.834 ± 0.33
8,N45D,-0.151 ± 0.13
9,N45F,-0.251 ± 0.088
10,V74Y,-0.297 ± 0.12
11,V74N,-0.067 ± 0.086
12,C40N,-0.999 ± 0.34
13,C40M,-0.568 ± 0.087
14,M69W,-0.235 ± 0.066
15,M69A,-0.81 ± 0.16
16,N54P,-0.003 ± 0.053
17,N54E,0.217 ± 0.047
18,S11T,-0.254 ± 0.1
19,S11Q,-0.33 ± 0.091
20,S11P,-0.088 ± 0.086
21,R42H,-0.412 ± 0.14
22,L61Q,-0.336 ± 0.088
23,L61H,-0.503 ± 0.33
24,I32D,-0.312 ± 0.14

row,Variant,abundance fitness
1,I32M,-0.105 ± 0.061
2,I32A,-0.156 ± 0.052
3,I32N,-0.059 ± 0.11
4,G17M,-0.254 ± 0.071
5,Y38Q,-0.739 ± 0.15
6,I37R,-0.009 ± 0.035
7,I37W,-0.119 ± 0.053
8,I37G,-0.152 ± 0.036
9,I37K,0.13 ± 0.055
10,C56P,-0.763 ± 0.3
11,C56F,-0.946 ± 0.31
12,E72K,-0.191 ± 0.062
13,E72S,-0.037 ± 0.048
14,E72F,-0.337 ± 0.13
15,E72M,-0.098 ± 0.053
16,E72V,-0.163 ± 0.048
17,T39A,-0.017 ± 0.033
18,T39Y,-0.009 ± 0.067
19,T39Q,0.076 ± 0.041
20,V51Q,0.076 ± 0.05
21,S73L,0.088 ± 0.04
22,F28K,-0.9 ± 0.19
23,F28I,-0.453 ± 0.22
